The numbers were not newly measured in patent US20250052762A1, “PEPTIDASE CLEAVABLE SUBSTRATES AND METHODS OF IDENTIFICATION AND USE THEREOF” (Alaunus Biosciences, Inc., priority 2020, published 2025), which cites them from elsewhere.

Entries after “also recorded” stand apart in the source; their conditions may differ. Square brackets hold non-standard residues; d marks the D form. Ends that are not written are not given here. * marks the point of attachment. MeOSuc = COC(=O)CCC(=O)*; 2Abz = Nc1ccccc1C(=O)O; dnp = not defined here; SBn = c1ccc(CS*)cc1

One data set has as its target MMP14 (Homo sapiens, UniProt P50281). The conditions noted are these: for Michaelis constant (KM): magnitude in words.
The next data set has as its target T1, neutrophil elastase (Homo sapiens, UniProt P08246).
T1 sequence (P08246 30-267): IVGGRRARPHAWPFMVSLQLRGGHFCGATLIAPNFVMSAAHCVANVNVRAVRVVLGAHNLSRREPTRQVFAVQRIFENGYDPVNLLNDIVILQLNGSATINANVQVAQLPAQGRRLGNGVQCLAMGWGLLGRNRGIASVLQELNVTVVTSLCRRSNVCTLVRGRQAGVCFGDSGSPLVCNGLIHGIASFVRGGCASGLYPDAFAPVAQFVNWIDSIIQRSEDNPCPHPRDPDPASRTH

A further data set concerns the target granzyme B (Homo sapiens, UniProt P10144). The note with it: for measured catalytic efficiency: candidate natural substrates, fluorescence assay (Boivin et al., 2012).
Where [1] appears, read: magnitude in words, top-most active substrates in BRENDA database.
[2] abbreviates: top-most active substrates in BRENDA database.

granzyme B, sequence (P10144 21-247): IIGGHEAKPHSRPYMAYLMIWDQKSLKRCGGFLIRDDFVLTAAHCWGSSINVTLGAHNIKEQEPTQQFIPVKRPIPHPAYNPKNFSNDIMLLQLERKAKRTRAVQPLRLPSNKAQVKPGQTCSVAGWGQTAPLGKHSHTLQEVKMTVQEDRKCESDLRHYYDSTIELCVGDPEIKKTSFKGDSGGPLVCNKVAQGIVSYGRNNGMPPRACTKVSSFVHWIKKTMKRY

Consider “collagen I alpha-1: collagen I alpha-1 chain, natural substrate of MMP14”, for which the “Michaelis constant (KM)” value with MMP14 (BRENDA database) is “piocomolar; also recorded: picomolar”.
Take “methoxysuccinyl-Ala-Ala-Pro-Val-thiobenzyl ester (MeOSuc-AAPV-SBn; SMILES COC(=O)CCC(=O)N[C@@H](C)C(=O)N[C@@H](C)C(=O)N1CCC[C@H]1C(=O)N[C@H](C(=O)SCc1ccccc1)C(C)C) [fluorescent tool substrate for neutrophil elastase]”: the estimated catalytic efficiency in the data set with neutrophil elastase (estimated from KM and kcat, fluorescence assay (Stein et al., 1987)) was 9565 mM⁻¹ s⁻¹. In addition, the “Michaelis constant (KM)” value in the data set with neutrophil elastase (setting [1]) is “micromolar”. In the data set with neutrophil elastase (setting [2]), the “turnover number (kcat)” value is recorded as “up to 22 s^−1”.
Regarding “collagen I alpha-2: collagen I alpha-2 chain, natural substrate of MMP14”, the “Michaelis constant (KM)” value with MMP14 (BRENDA database) is “piocomolar; also recorded: picomolar”.
On to “methoxycoumarin-4-acetyl-Lys-Pro-Leu-Gly-Leu-Lys (2,4-dinitrophenyl)-Ala-Arg-NH2 ({methoxycoumarin‑4‑acetyl}-KPLGLK(2,4‑dinitrophenyl)AR-NH2; not fully specified; printed as methoxycoumarin-4-acetyl-Lys-Pro-Leu-Gly-Leu-Lys (2,4-dinitrophenyl)-Ala-Arg-NH₂)”, for which, in the data set with MMP14 (measured by fluorescence assay, BRENDA database), the catalytic efficiency is 550 to 2429 mM⁻¹ s⁻¹. For the same molecule, the turnover number with MMP14 (reported in BRENDA database) was 0.33 to 6.8 s⁻¹.
Consider “2-aminobenzoyl-IEPDSSMESK-dnp ([2Abz]IEPDSSMESK-dnp; reading uncertain; also: printed as 2-aminobenzoyl-IEPDSSMESK-dnp) [fluorescent tool substrate for granzyme B]”, for which the estimated catalytic efficiency with granzyme B (estimated from KM and kcat, fluorescence assay (Sun et al., 2001)) was 758 mM⁻¹ s⁻¹. Further, in the data set with granzyme B (setting [1]), the “Michaelis constant (KM)” value is recorded as “micromolar”. Also, the “turnover number (kcat)” value with granzyme B (setting [2]) is 1 to 5 s⁻¹.

B1: biglycan: candidate natural substrate of granzyme B (protein, UniProt P21810 38-368, looked up)
Biglycan: DEEASGADTSGVLDPDSVTPTYSAMCPFGCHCHLRVVQCSDLGLKSVPKEISPDTTLLDLQNNDISELRKDDFKGLQHLYALVLVNNKISKIHEKAFSPLRKLQKLYISKNHLVEIPPNLPSSLVELRIHDNRIRKVPKGVFSGLRNMNCIEMGGNPLENSGFEPGAFDGLKLNYLRISEAKLTGIPKDLPETLNELHLDHNKIQAIELEDLLRYSKLYRLGLGHNQIRMIENGSLSFLPTLRELHLDNNKLARVPSGLPDLKLLQVVYLHSNNITKVGVNDFCPMGFGVKRAYYNGISLFNNPVPYWEVQPATFRCVTDRLAIQFGNYKK
Take B1: in the data set with granzyme B, the measured catalytic efficiency was 1.7 mM⁻¹ s⁻¹.

B2: decorin: candidate natural substrate of granzyme B (protein, UniProt P07585 31-359, looked up)
Decorin: DEASGIGPEVPDDRDFEPSLGPVCPFRCQCHLRVVQCSDLGLDKVPKDLPPDTTLLDLQNNKITEIKDGDFKNLKNLHALILVNNKISKVSPGAFTPLVKLERLYLSKNQLKELPEKMPKTLQELRAHENEITKVRKVTFNGLNQMIVIELGTNPLKSSGIENGAFQGMKKLSYIRIADTNITSIPQGLPPSLTELHLDGNKISRVDAASLKGLNNLAKLGLSFNSISAVDNGSLANTPHLRELHLDNNKLTRVPGGLAEHKYIQVVYLHNNNISVVGSSDFCPPGHNTKKASYSGVSLFSNPVQYWEIQPSTFRCVYVRSAIQLGNYK
As to B2, the measured catalytic efficiency with granzyme B was 1 mM⁻¹ s⁻¹.

B3: beta-glycan: candidate natural substrate of granzyme B (protein, UniProt Q03167 21-851, looked up)
Transforming growth factor …: GPEPGALCELSPVSASHPVQALMESFTVLSGCASRGTTGLPQEVHVLNLRTAGQGPGQLQREVTLHLNPISSVHIHHKSVVFLLNSPHPLVWHLKTERLATGVSRLFLVSEGSVVQFSSANFSLTAETEERNFPHGNEHLLNWARKEYGAVTSFTELKIARNIYIKVGEDQVFPPKCNIGKNFLSLNYLAEYLQPKAAEGCVMSSQPQNEEVHIIELITPNSNPYSAFQVDITIDIRPSQEDLEVVKNLILILKCKKSVNWVIKSFDVKGSLKIIAPNSIGFGKESERSMTMTKSIRDDIPSTQGNLVKWALDNGYSPITSYTMAPVANRFHLRLENNAEEMGDEEVHTIPPELRILLDPGALPALQNPPIRGGEGQNGGLPFPFPDISRRVWNEEGEDGLPRPKDPVIPSIQLFPGLREPEEVQGSVDIALSVKCDNEKMIVAVEKDSFQASGYSGMDVTLLDPTCKAKMNGTHFVLESPLNGCGTRPRWSALDGVVYYNSIVIQVPALGDSSGWPDGYEDLESGDNGFPGDMDEGDASLFTRPEIVVFNCSLQQVRNPSSFQEQPHGNITFNMELYNTDLFLVPSQGVFSVPENGHVYVEVSVTKAEQELGFAIQTCFISPYSNPDRMSHYTIIENICPKDESVKFYSPKRVHFPIPQADMDKKRFSFVFKPVFNTSLLFLQCELTLCTKMEKHPQKLPKCVPPDEACTSLDASIIWAMMQNKKTFTKPLAVIHHEAESKEKGPSMKEPNPISPPIFHGLDTLTVMGIAFAAFVIGALLTGALWYIYSHTGETAGRQQVPTSPPASENSSAAHSIGSTQSTPCSSSSTA
On to B3, for which the measured catalytic efficiency with granzyme B was 5.9 mM⁻¹ s⁻¹.
